# From paper PMC11839083 (bioRxiv, 2025)
# B1: C1-GS4 (Aae NtrC1 residues 121–387 with GSGSLGQYL at the C-terminus) (other)
# chain: LRKENELLRREKDLKEEEYVFESPKMKEILEKIKKISCAECPVLITGESGVGKEVVARLIHKLSDRSKEPFVALNVASIPRDIFEAELFGYEKGAFTGAVSSKEGFFELADGGTLFLDEIGELSLEAQAKLLRVIESGKFYRLGGRKEIEVNVRILAATNRNIKELVKEGKFREDLYYRLGVIEIEIPPLRERKEDIIPLANHFLKKFSRKYAKEVEGFTKSAQELLLSYPWYGNVRELKNVIERAVLFSEGKFIDRGELSCLVNSKGSGSLGQYL
# Target: the molecule itself
# Test: cryo-EM structure
protein,measurement,value
B1,binding result,binds
